We go through five molecules from US20230047413A1 (Janssen / Centocor, published 2023).

Where a chain is given by its changes, count along the chain named.

Usually koff stands for the rate constant with which the complex falls apart. Read a low koff as a long-lived complex. As a reminder, the kon is the rate constant with which the complex forms. A lower kon goes with slow association. In general, EC50 (read off the curve) refers to the concentration needed to bring the measured effect to its halfway point. A lower EC50 (read off the curve) goes with higher potency in that assay. By EC50 is commonly meant the concentration needed to bring the measured effect to its halfway point. Low readings indicate an effect from little substance, high ones a need for much substance.

Assay [1] has as its target T1, PHF-tau (paired helical filament tau isolated from Alzheimer's disease brain) (human, UniProt P10636-8 2-441, limits assumed, hyper-phosphorylated, aggregated; sites not listed for the preparation).
T1 construct: also called enriched PHF-tau; ePHF-tau
The assay is described as follows: SPR ProteOn, PHF-tau.

For assay [2], the target named is T2, Peptide-8 (human, phosphothreonine 212 (tau 2N4R numbering); SCBiot and dPEG4 at the N-terminus; amide at the C-terminus).
T2 construct: also called pT212-tau peptide (Peptide-8)
The assay is described as follows: SPR ProteOn, mAb captured by anti-human Fc, peptide as analyte. How it is done: (§1) A subset of HFA-PT3 monoclonal antibody variants, selected based on biophysical characterization and ELISA binding to PHF, were analyzed by Surface Plasmon Resonance (SPR) with a ProteOn XPR36 for binding to the following phosphopeptides: pT212/pT217-tau peptide (Peptide-2, SEQ ID NO: 48) and pT212-tau peptide (Peptide-8, SEQ ID NO: 54). All experiments were performed at 25° C. using PBST, pH 7.4, (Bio-Rad Cat#176-2720) as both running buffer and sample dilution buffer.
(§2) Monoclonal antibody/Peptide binding. […] Anti-human IgG was amine-coupled to the chip surface using EDC/NHS, then washed with ethanolamine. Antibodies were diluted to 2 μg/mL in PBST and injected on the surface for 5 min at 30 μL/min to achieve a maximum density of 900-1000 RU. Peptides were injected as analytes at 60 μL/min for 3 min, followed by 5 min dissociation. Peptide-2 was diluted in PBST to generate a three-fold concentration series (0-30 nM) and measured in duplicate. Single measurements of monoclonal antibody binding to Peptide-8 were recorded over the concentration range 0-100 nM.
(§3) Data were double referenced by subtraction of the interspot response, and the curves generated by the buffer only injection. The chip surface was regenerated with 0.85% phosphoric acid, followed by PBST injection before the next antibody titration injection. Data processing and analysis were performed using instrument software. The data were fit using a simple Langmuir 1:1 binding model.

The target in assay [3] is T3, Peptide-2 (human, phosphothreonine 212, phosphothreonine 217 (tau 2N4R numbering); short chain biotin (SCBiot) and dPEG4 at the N-terminus; amide at the C-terminus).
T3 construct: also called pT212/pT217-tau peptide (Peptide-2)
The assay is described as follows: SPR ProteOn, mAb captured, peptide as analyte; range of n=2. How it is done:
as §1, §2, §3

The target in assay [4] is T3, Peptide-2. The assay is described as follows: SPR ProteOn, mAb captured, peptide as analyte; range of n=2; upper end of n=2 range. As to the method: as §1, §2, §3
Assay [5] deals with T3, Peptide-2. The assay is described as follows: SPR ProteOn, mAb captured, peptide as analyte. As to the method: as §1, §2, §3
The target of assay [6] is T1, PHF-tau (paired helical filament tau …). The assay is described as follows: SPR ProteOn, PHF-tau capture-coupled via HT7, bivalent model. How it is done:
(§4) A subset of HFA-PT3 monoclonal antibodies was tested for binding to PHF-tau isolated from Alzheimer's disease brain. All interactions were studied at 25° C. using PBS pH 7.4, supplemented with 3 mM EDTA, and 0.005% Tween 20 as running or system buffer. HT7 (Pierce, catalog #MN1000), a mouse anti-tau antibody, was used as a positive control.
(§5) The interaction of anti-tau monoclonal antibodies with PHF-tau was analyzed by ProteOn using a biosensor surface prepared by capture-coupling PHF-tau using HT7 as the capture reagent. PHF-tau was prepared by 2-times centrifugation at 5000×g at 5° C. for 10 min; the supernatant from the second centrifugation was then diluted 1/40 in running buffer. To prepare the chip, HT7 was covalently immobilized to the surface of a GLC (ProteOn) sensor chip using the manufacturer's instructions for amine-coupling chemistry (˜5000 response units (RU)). The coupling buffer was 10 mM sodium acetate, pH 4.5. After HT7 immobilization, PHF-tau was injected and captured (˜300 RU) by HT7. After capture, PHF-tau was covalently immobilized to the sensor chip by activation of the chip using the manufacturer's instructions for amine-coupling chemistry. Remaining reactive sites were blocked by the injection of ethanolamine. After preparation and stabilization of the PHF-tau-modified surface and reference surface (containing no antigen), the anti-tau antibodies were diluted in the running buffer and injected in solution (0.12-75 nM in 5-fold dilutions). The association was monitored for 3 minutes (120 μL injected at 40 μL/min). The dissociation was monitored for 15 minutes. Regeneration of the sensor surface was performed using 10 mM Gly pH 2.0. The data for monoclonal antibodies were fit using a bivalent binding model where the apparent affinity (KD) was reported as the ratio of koff/kₒₙ. A Langmuir 1:1 binding model was used for kinetics analysis of Fabs.

Assay [7] addresses T4, tau phospho-peptide of the direct ELISA of Example 11.
T4 construct: also called pT217 peptide; pT212/pT217 peptide
The assay is described as follows: direct ELISA on plate-coated tau phospho-peptide (10 ng/mL), detection with HRPO-labelled anti-Fab antibody. How it is done: (§6) Binding to tau phospho-peptide was analysed by ELISA where peptide (10 ng/mL) was directly coated to the plate overnight. […] After incubation with antibodies, plates were washed and 50 μL per well of HRPO labelled anti-Fab antibody (Jackson Immunoresearch laboratories) (diluted 1:10000 in blocking buffer). After another washing step detection was performed with “One step” TMB (Thermo Scientific) according to the manufacturers' instructions. Plates were analysed in EnVision® 2102 Multilabel Reader (Perkin Elmer, Waltham, Mass., USA). Binding curves were generated using GraphPad Prism7.0 software.

Assay [8] concerns the target T4, tau phospho-peptide of the direct ELISA …. The assay is described as follows: direct ELISA, peptide coated. How it is done: as §6
Background: In an ELISA, binding on a coated surface is turned into a signal by an enzyme label.

The target of assay [9] is T1, PHF-tau (paired helical filament tau …). The assay is described as follows: SPR ProteOn, PHF-tau capture-coupled via HT7, bivalent model. As to the method: Affinity matured monoclonal antibodies were tested for binding to PHF-tau isolated from Alzheimer's disease brain.
A GLC sensor chip was covalently immobilized with a mouse anti-tau antibody, HT7 (ThermoFisher, catalog# MN1000) using the vendor recommended protocol for amine-coupling chemistry (˜5000 response units, RU). The coupling buffer was 10 mM, pH 4.5 sodium acetate. PHF-tau was prepared by 2-times centrifugation at 5000×g in 5° C. for 10 min. […] After capture-coupling, the surface was activated and deactivated to generate a homogenous PHF-tau surface for antibody binding studies. The anti-tau antibodies and their Fabs (prepared in running buffer, 0.024-75 nM at 5-fold dilutions) were injected at 50 μL/min over the PHF-tau surface to measure binding. The association and dissociation profiles were monitored for 4 minutes and 2 hours, respectively. After dissociation, the sensor chip was regenerated using multiple injections of 10 mM Glycine pH 2.0 and the running buffer. A reference surface (without any PHF-tau) was used to monitor non-specific binding of the injected mAbs or Fabs. HT7 antibody was used as a positive control. The binding sensorgrams for mAbs were fit using a bivalent binding model where the apparent affinity or avidity-driven binding (KD) was reported as the ratio of off-rate and on-rate (koff/kₒₙ). A 1:1 Langmuir binding model was used for kinetics analysis of Fabs.
This is another data set of the same source.

Assay [10] has the same target. The assay is described as follows: SPR ProteOn, PHF-tau capture-coupled via HT7, 1:1 model. As to the method: as §4, §5
Assay [11] has as its target T3, Peptide-2. The assay is described as follows: SPR ProteOn, peptide captured, Fab as analyte. How it is done: as §1
(§7) Fab/peptide binding. Biotinylated peptide was captured on a neutravidin-coated NLC biosensor chip pre-conditioned with PBST, and Fab was flowed over the surface to measure kinetic parameters. Approximately 5-10 RU of peptide was captured on the chip surface by diluting peptide to 10 ng/mL in PBST and injecting over the flow channels at 30 μL/min for 100 s. Serial dilutions of PT3 Fab (1.1 nM to 90 nM) were injected at 60 μL/min for 3 minutes (association phase), followed by 300 s of buffer only (dissociation phase).
as §3

Assay [12] has as its target T1, PHF-tau (paired helical filament tau …). The assay is described as follows: SPR ProteOn, PHF-tau on chip.
Assay [13] deals with T3, Peptide-2. The assay is described as follows: SPR ProteOn, peptide captured, Fab as analyte; range of n=2; upper end of n=2 range. How it is done: as §1, §7, §3
The target of assay [14] is T3, Peptide-2. The assay is described as follows: SPR ProteOn, peptide captured, Fab as analyte; range of n=2. As to the method: as §1, §7, §3
Assay [15] has as its target T2, Peptide-8. The assay is described as follows: SPR ProteOn, mAb captured by anti-human Fc, peptide as analyte; poor data fit. How it is done: as §1, §2, §3

T2 sequence (peptide, as listed by the source): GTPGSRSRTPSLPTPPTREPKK
T1 sequence (P10636 other isoform, or with tags, fused parts or gaps limits assumed): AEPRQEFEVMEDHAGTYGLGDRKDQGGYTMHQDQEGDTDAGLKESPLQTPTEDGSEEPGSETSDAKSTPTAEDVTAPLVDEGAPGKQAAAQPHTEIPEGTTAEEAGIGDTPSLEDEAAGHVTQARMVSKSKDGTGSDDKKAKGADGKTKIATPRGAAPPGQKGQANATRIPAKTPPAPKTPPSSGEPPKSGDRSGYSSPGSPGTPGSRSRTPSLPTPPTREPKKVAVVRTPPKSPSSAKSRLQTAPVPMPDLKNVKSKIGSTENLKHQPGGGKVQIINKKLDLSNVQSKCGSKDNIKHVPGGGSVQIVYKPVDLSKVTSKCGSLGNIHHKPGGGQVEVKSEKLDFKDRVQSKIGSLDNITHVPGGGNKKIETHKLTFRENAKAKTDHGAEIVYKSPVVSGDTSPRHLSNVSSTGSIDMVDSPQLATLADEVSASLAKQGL

B1: PT1 mAb (hyb) (antibody, V domains shown)
VH: QVQLQQSGTELMKPGASVKISCKATGYTFSSSWMGWVKQRPGHGLEWIGDILPGSGGTNYNERFKGKASFTAETSSNTAYMQLSSLTSEDSAVYYCVRSYYDYDRFANWGQGTLVTVSA
VL: DIVMTQAAPSVPVTPGESVSISCRSSESLLHSNGNTYLYWFLQRPGQSPQLLIYRMSNLASGVPDRFSGSGSGTAFTLRISRVEAEDVGVYYCMQYLEYPLTFGAGTKLELK
On to B1, for which, in assay [1], the Kd came to 0.322 nM, the koff was 6.47e-05 s⁻¹ and the kon stood at 201000 M⁻¹ s⁻¹.

B2: B296 (antibody, human IgG1, kappa, V domains shown)
VH: QVQLVESGGGVVQPGRSLRLSCAASGFTFSSYAMSWVRQAPGKGLEWVASISKGGNTYYADSVKGRFTISRDNSKNTLYLQMNSLRAEDTAVYYCARGWGDYGWFAYWGQVTLVTVSS
VL: DIQMTQSPSSLSASVGDRVTITCKASQDINRYLNWFQQKPGKAPKSLIYRANRLLDGVPSRFSGSGSGTDFTLTISSLQPEDFATYYCLQYDEFPLTFGQGTKLEIKR
notes: Humanized PT3, human IgG1/kappa; also called VH92/VL77; HFA-PT3
Regarding B2, the Kd in assay [2] was 26.8 nM; in assay [3], 0.125 to 0.255 nM; in [5] it was 0.19 nM; in assay [6], 0.027 nM; in assay [9] it was 0.0062 nM. Moreover, the koff in [2] worked out at 0.023 s⁻¹; in assay [3] it was 0.000788 s⁻¹; in assay [4], 0.000863 s⁻¹; in assay [5] it was 0.000826 s⁻¹; in assay [6], 2.93e-05 s⁻¹; in assay [9], 1.17e-05 s⁻¹. For the same molecule, the kon in assay [2] turned out to be 856000 M⁻¹ s⁻¹; in assay [3], 3.1e+06 M⁻¹ s⁻¹; in assay [4], 6.9e+06 M⁻¹ s⁻¹; in assay [5], 5e+06 M⁻¹ s⁻¹; in assay [6], 1.07e+06 M⁻¹ s⁻¹; in assay [9] it was 1.89e+06 M⁻¹ s⁻¹. In addition, the “EC50 (read off the curve)” value in assay [7] was approximately 0.3 nM. The same molecule gave an EC50 in [8] of 0.433 nM.

B3: B326 (Fab of B252) (Fab, V domains shown)
VH: B2 VH with V11L, Q13K, R16G, V37I, A49S, S74A, T77S
VL: DIVMTQTPLSSPVTLGQPASISCKASQDINRYLNWLQQRPGQPPRLLIYRANRLLDGVPDRFSGSGAGTDFTLKISRVEAEDVGVYYCLQYDEFPLTFGQGTKLEIK
notes: also called B252 Fab
Consider B3, for which the Kd in [10] was 0.224 nM; in assay [11], 0.493 nM; in [14], 0.387 to 0.599 nM. Further, the koff in assay [10] came to 0.00023 s⁻¹; in assay [11], 0.000329 s⁻¹; in assay [13], 0.000353 s⁻¹; in [14] it was 0.000304 s⁻¹. The kon was 1.02e+06 M⁻¹ s⁻¹ in assay [10], 710000 M⁻¹ s⁻¹ in [11], 912000 M⁻¹ s⁻¹ in [13] and 507000 M⁻¹ s⁻¹ in assay [14]. Moreover, in assay [12], the “fold weaker KD than the mouse PT3 parent Fab B187” value is 3.3 fold.

B4: B809 (antibody, human IgG1, kappa, V domains shown)
VH: B2 VH with S30T, S52T, D101I
VL: B2 VL
notes: also called PT1B809
Take B4: the “fold improvement in on-rate compared to the parent antibody (B296)” value in assay [12] was determined as 3 fold. Besides, the “EC50 (read off the curve)” value in assay [7] is approximately 0.06 nM. In [8], this molecule returned an EC50 of 0.0917 nM. In assay [9], this molecule returned a Kd of 0.002 nM, a dissociation rate constant (koff) of 1.27e-05 s⁻¹ and a kon of 6.45e+06 M⁻¹ s⁻¹.

B5: B280 (antibody, human IgG1, V domains shown)
VH: B2 VH with Q1E, V5L, V11L, R16G, A49S, R97K
VL: B3 VL
notes: Humanized (HFA) PT3 variant, human IgG1/kappa; also called VH91/VL80
B5: the Kd in assay [15] was 34.7 nM; in [3], 0.418 to 1.12 nM; in [5] it was 0.769 nM; in [6] it was 0.055 nM. The koff in assay [15] came out at 0.00757 s⁻¹; in assay [3], 0.00246 s⁻¹; in [4] it was 0.00301 s⁻¹; in assay [5], 0.00274 s⁻¹; in assay [6] it was 5.63e-05 s⁻¹. Further, the kon in assay [15] came out at 218000 M⁻¹ s⁻¹; in assay [3], 2.21e+06 M⁻¹ s⁻¹; in [4], 7.2e+06 M⁻¹ s⁻¹; in assay [5], 4.71e+06 M⁻¹ s⁻¹; in [6] it was 1.02e+06 M⁻¹ s⁻¹.
